Patent publication US20240424125A1

Key:
[1] = target: human FRα on cells (human) (UniProt P15328); experiment: flow cytometry competition on H2110 cells; competitor: v23924; first of two values
[2] = target: human FRα on cells (human) (UniProt P15328); experiment: flow cytometry competition on H2110 cells; competitor: v23924; second of two values
[3] = target: human FRα on cells (human) (UniProt P15328); experiment: flow cytometry competition on H2110 cells; competitor: Mirvetuximab; first of two values
[4] = target: human FRα on cells (human) (UniProt P15328); experiment: flow cytometry competition on H2110 cells; competitor: Mirvetuximab; second of two values
[5] = target: human FRα on cells (human) (UniProt P15328); experiment: flow cytometry competition on H2110 cells; competitor: Farletuzumab (self); first of two values
[6] = target: human FRα on cells (human) (UniProt P15328); experiment: flow cytometry competition on H2110 cells; competitor: Farletuzumab (self); second of two values
[7] = target: human FRα on cells (human) (UniProt P15328); experiment: flow cytometry competition on H2110 cells; competitor: Farletuzumab; first of two values
[8] = target: human FRα on cells (human) (UniProt P15328); experiment: flow cytometry competition on H2110 cells; competitor: Farletuzumab; second of two values
[9] = target: human FRα on cells (human) (UniProt P15328); experiment: flow cytometry competition on H2110 cells; competitor: Mirvetuximab (self); first of two values
[10] = target: human FRα on cells (human) (UniProt P15328); experiment: flow cytometry competition on H2110 cells; competitor: Mirvetuximab (self); second of two values

human FRα on cells (human), sequence (P15328 25-234 limits assumed): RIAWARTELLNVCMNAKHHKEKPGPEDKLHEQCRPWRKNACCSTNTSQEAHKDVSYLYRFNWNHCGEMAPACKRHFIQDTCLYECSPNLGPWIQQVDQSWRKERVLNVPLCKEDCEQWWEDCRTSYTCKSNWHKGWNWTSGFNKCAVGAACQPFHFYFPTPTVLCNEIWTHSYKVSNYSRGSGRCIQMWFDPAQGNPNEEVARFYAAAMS

Binder | % Competition Binding [1] [%] | % Competition Binding [2] [%] | % Competition Binding [3] [%] | % Competition Binding [4] [%] | % Competition Binding [5] [%] | % Competition Binding [6] [%] | % Competition Binding [7] [%] | % Competition Binding [8] [%] | % Competition Binding [9] [%] | % Competition Binding [10] [%]
farletuzumab (v31629) (antibody, part only; not given: constant regions, V domains shown, not shown: another chain or arm of the molecule) VH: EVQLVESGGGVVQPGRSLRLSCSASGFTFSGYGLSWVRQAPGKGLEWVAMISSGGSYTYYADSVKGRFAISRDNAKNTLFLQMDSLRPEDTGVYFCARHGDDPAWFAYWGQGTPVTVSS VL: DIQLTQSPSSLSASVGDRVTITCSVSSSISSNNLHWYQQKPGKAPKPWIYGTSNLASGVPSRFSGSGSGTDYTFTISSLQPEDIATYYCQQWSSYPYMYTFGQGTKVEIK | 99 | 72 | 91 | 75 | 98 | 100 |  |  |  | 
mirvetuximab (v17716) (antibody, part only; not given: constant regions, V domains shown, not shown: another chain or arm of the molecule) VH: QVQLVQSGAEVVKPGASVKISCKASGYTFTGYFMNWVKQSPGQSLEWIGRIHPYDGDTFYNQKFQGKATLTVDKSSNTAHMELLSLTSEDFAVYYCTRYDGSRAMDYWGQGTTVTVSS VL: DIVLTQSPLSLAVSLGQPAIISCKASQSVSFAGTSLMHWYHQKPGQQPRLLIYRASNLEAGVPDRFSGSGSKTDFTLTISPVEAEDAATYYCQQSREYPYTFGGGTKLEIK | 13 | 7 |  |  |  |  | 99 | 100 | 100 | 98
